Values of other authors as cited in US20240366723A1, “COMBINATION THERAPY FOR THE TREATMENT OF ENTERIC NEUROPATHIES” (TRANSFERT PLUS, LIMITED PARTNERSHIP, priority 2021, published 2024).

B1: MANF: Mesencephalic Astrocyte Derived Neurotrophic Factor (protein, UniProt P55145 25-182, looked up)
Mesencephalic …: LRPGDCEVCISYLGRFYQDLKDRDVTFSPATIENELIKFCREARGKENRLCYYIGATDDAATKIINEVSKPLAHHIPVEKICEKLKKKDSQICELKYDKQIDLSTVDLKKLRVKELKKILDDWGETCKGCAEKSDYIRKINELMPKYAPKAASARTDL
B2: BMP4: Bone morphogenetic protein 4 (protein, UniProt P12644 293-408, looked up)
Bone morphogenetic protein 4: SPKHHSQRARKKNKNCRRHSLYVDFSDVGWNDWIVAPPGYQAFYCHGDCPFPLADHLNSTNHAIVQTLVNSVNSSIPKACCVPTELSAISMLYLDEYDKVVLKNYQEMVVEGCGCR

Conditions: literature reports, various models

Molecule | Reported neurotrophic activity
B1 | MANF has neuroregenerative activity via differentiation
B2 | BMP signaling is necessary for neural crest cell
